Laboratory results as given in publication doi:10.1101/420174.

Biological target: afTMEM16 scramblase from Aspergillus fumigatus (Aspergillus fumigatus)
Experiment: cryo-EM structure

afTMEM16 scramblase from Aspergillus fumigatus (natural protein)
stoichiometry N: 2
